Laboratory results: the supplement of paper PMC9112550, “Optimization of the antimicrobial peptide Bac7 by deep mutational scanning” (BMC Biology, 2022)

The sequences below were run on Escherichia coli TOP10 (assay: shrunken log2 fold change of peptide-encoding DNA abundance (4.5 h post-induction vs induction); higher = less antimicrobial activity (less host growth inhibition)). Conditions: time post-induction: 4.5 h; library: site-saturation at positions 5, 18, 19, 20.
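Note: peptides expressed intracellularly from a pBAD plasmid library in pooled LB shake-flask culture, induced with 0.3% L-arabinose, DNA abundance read by NGS, three biological replicates, DESeq2 with apeglm shrinkage.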

Sequence	shrunken log2 fold change
RRIRCRPPRLPRPRPRPGVTPRP	-0.175
RRIRCRPPRLPRPRPRPGWEPRP	0.253
RRIRCRPPRLPRPRPRPGWKPRP	0.173
RRIRCRPPRLPRPRPRPHEKPRP	-0.277
RRIRCRPPRLPRPRPRPHEQPRP	-0.15
RRIRCRPPRLPRPRPRPHEVPRP	0.104
RRIRCRPPRLPRPRPRPHFHPRP	-0.712
RRIRCRPPRLPRPRPRPHGHPRP	-0.167
RRIRCRPPRLPRPRPRPHHEPRP	-0.24
RRIRCRPPRLPRPRPRPHIAPRP	-0.413
RRIRCRPPRLPRPRPRPHIVPRP	-0.325
RRIRCRPPRLPRPRPRPHKLPRP	-0.436
RRIRCRPPRLPRPRPRPHKYPRP	-0.618
RRIRCRPPRLPRPRPRPHLAPRP	-0.0147
RRIRCRPPRLPRPRPRPHMNPRP	-0.843
RRIRCRPPRLPRPRPRPHNCPRP	-0.491
RRIRCRPPRLPRPRPRPHNNPRP	-0.991
RRIRCRPPRLPRPRPRPHPPPRP	0.809
RRIRCRPPRLPRPRPRPHQKPRP	0.00571
RRIRCRPPRLPRPRPRPHRGPRP	0.0133
RRIRCRPPRLPRPRPRPHRQPRP	-0.19
RRIRCRPPRLPRPRPRPHTLPRP	-0.731
RRIRCRPPRLPRPRPRPHTSPRP	-0.498
RRIRCRPPRLPRPRPRPHTWPRP	-0.216
RRIRCRPPRLPRPRPRPHTYPRP	-0.578

Sequence	shrunken log2 fold change
RRIRCRPPRLPRPRPRPHVCPRP	0.0221
RRIRCRPPRLPRPRPRPHWIPRP	-0.761
RRIRCRPPRLPRPRPRPIACPRP	-0.285
RRIRCRPPRLPRPRPRPIDAPRP	-0.268
RRIRCRPPRLPRPRPRPIDFPRP	-0.458
RRIRCRPPRLPRPRPRPIDNPRP	-0.755
RRIRCRPPRLPRPRPRPIEPPRP	0.159
RRIRCRPPRLPRPRPRPIFDPRP	-0.191
RRIRCRPPRLPRPRPRPIGEPRP	-0.0453
RRIRCRPPRLPRPRPRPIGLPRP	0.00863
RRIRCRPPRLPRPRPRPIGNPRP	-0.221
RRIRCRPPRLPRPRPRPIGSPRP	-0.139
RRIRCRPPRLPRPRPRPIGWPRP	-0.0817
RRIRCRPPRLPRPRPRPIHLPRP	-0.193
RRIRCRPPRLPRPRPRPIISPRP	-0.346
RRIRCRPPRLPRPRPRPIKFPRP	-0.159
RRIRCRPPRLPRPRPRPIKIPRP	-0.436
RRIRCRPPRLPRPRPRPIKPPRP	-0.259
RRIRCRPPRLPRPRPRPILVPRP	-0.0457
RRIRCRPPRLPRPRPRPIMIPRP	-0.566
RRIRCRPPRLPRPRPRPIMMPRP	-0.211
RRIRCRPPRLPRPRPRPIMWPRP	-0.123
RRIRCRPPRLPRPRPRPINEPRP	-0.116
RRIRCRPPRLPRPRPRPINVPRP	-0.307
RRIRCRPPRLPRPRPRPIPIPRP	-0.0907

Sequence	shrunken log2 fold change
RRIRCRPPRLPRPRPRPIQKPRP	-0.127
RRIRCRPPRLPRPRPRPIQLPRP	-0.0847
RRIRCRPPRLPRPRPRPIRDPRP	-0.231
RRIRCRPPRLPRPRPRPISTPRP	-0.245
RRIRCRPPRLPRPRPRPITSPRP	0.0215
RRIRCRPPRLPRPRPRPIVHPRP	-0.7
RRIRCRPPRLPRPRPRPIVWPRP	0.102
RRIRCRPPRLPRPRPRPIWGPRP	0.25
RRIRCRPPRLPRPRPRPIWTPRP	-0.0919
RRIRCRPPRLPRPRPRPIYDPRP	-0.867
RRIRCRPPRLPRPRPRPIYEPRP	-0.576
RRIRCRPPRLPRPRPRPKAQPRP	0.262
RRIRCRPPRLPRPRPRPKATPRP	0.0985
RRIRCRPPRLPRPRPRPKAWPRP	0.132
RRIRCRPPRLPRPRPRPKCKPRP	0.0809
RRIRCRPPRLPRPRPRPKCPPRP	0.0246
RRIRCRPPRLPRPRPRPKDMPRP	-0.531
RRIRCRPPRLPRPRPRPKDPPRP	0.148
RRIRCRPPRLPRPRPRPKEYPRP	-0.207
RRIRCRPPRLPRPRPRPKFDPRP	-0.0305
RRIRCRPPRLPRPRPRPKFPPRP	-0.0293
RRIRCRPPRLPRPRPRPKFSPRP	-0.0966
RRIRCRPPRLPRPRPRPKGIPRP	0.0519
RRIRCRPPRLPRPRPRPKGRPRP	-0.00803
RRIRCRPPRLPRPRPRPKHRPRP	-0.212

Sequence	shrunken log2 fold change
RRIRCRPPRLPRPRPRPKHTPRP	-0.0232
RRIRCRPPRLPRPRPRPKIFPRP	-0.0936
RRIRCRPPRLPRPRPRPKISPRP	-0.712
RRIRCRPPRLPRPRPRPKIYPRP	-0.643
RRIRCRPPRLPRPRPRPKNGPRP	0.0379
RRIRCRPPRLPRPRPRPKQDPRP	0.0895
RRIRCRPPRLPRPRPRPKSDPRP	0.0327
RRIRCRPPRLPRPRPRPKSYPRP	-0.443
RRIRCRPPRLPRPRPRPKVFPRP	0.0792
RRIRCRPPRLPRPRPRPKVMPRP	-0.184
RRIRCRPPRLPRPRPRPKWCPRP	-0.105
RRIRCRPPRLPRPRPRPKWWPRP	0.0539
RRIRCRPPRLPRPRPRPKWYPRP	-0.239
RRIRCRPPRLPRPRPRPKYEPRP	-0.403
RRIRCRPPRLPRPRPRPKYNPRP	-0.696
RRIRCRPPRLPRPRPRPKYWPRP	0.22
RRIRCRPPRLPRPRPRPLEHPRP	-0.167
RRIRCRPPRLPRPRPRPLFGPRP	-0.0673
RRIRCRPPRLPRPRPRPLGLPRP	-0.0163
RRIRCRPPRLPRPRPRPLGSPRP	-0.423
RRIRCRPPRLPRPRPRPLMMPRP	0.239
RRIRCRPPRLPRPRPRPLMYPRP	-0.606
RRIRCRPPRLPRPRPRPLNKPRP	-0.695
RRIRCRPPRLPRPRPRPLNPPRP	-0.185
RRIRCRPPRLPRPRPRPLPLPRP	-0.0103

Sequence	shrunken log2 fold change
RRIRCRPPRLPRPRPRPLSGPRP	-0.0515
RRIRCRPPRLPRPRPRPLTDPRP	-0.285
RRIRCRPPRLPRPRPRPLTSPRP	0.208
RRIRCRPPRLPRPRPRPLVKPRP	-0.0116
RRIRCRPPRLPRPRPRPLWEPRP	0.00378
RRIRCRPPRLPRPRPRPLWTPRP	-0.00711
RRIRCRPPRLPRPRPRPLYDPRP	-0.312
RRIRCRPPRLPRPRPRPMAKPRP	-0.0415
RRIRCRPPRLPRPRPRPMALPRP	-0.0797
RRIRCRPPRLPRPRPRPMARPRP	0.352
RRIRCRPPRLPRPRPRPMCQPRP	-0.0371
RRIRCRPPRLPRPRPRPMCWPRP	0.0297
RRIRCRPPRLPRPRPRPMDKPRP	-0.131
RRIRCRPPRLPRPRPRPMDWPRP	-0.0172
RRIRCRPPRLPRPRPRPMEEPRP	0.0671
RRIRCRPPRLPRPRPRPMGFPRP	-0.103
RRIRCRPPRLPRPRPRPMHAPRP	0.315
RRIRCRPPRLPRPRPRPMHFPRP	0.102
RRIRCRPPRLPRPRPRPMIWPRP	-0.0837
RRIRCRPPRLPRPRPRPMIYPRP	-0.144
RRIRCRPPRLPRPRPRPMMSPRP	-0.0652
RRIRCRPPRLPRPRPRPMNEPRP	-0.307
RRIRCRPPRLPRPRPRPMNQPRP	-0.248
RRIRCRPPRLPRPRPRPMQGPRP	-0.0484
RRIRCRPPRLPRPRPRPMQNPRP	0.311

Sequence	shrunken log2 fold change
RRIRCRPPRLPRPRPRPMQYPRP	-0.000361
RRIRCRPPRLPRPRPRPMRTPRP	0.962
RRIRCRPPRLPRPRPRPMSEPRP	-0.0508
RRIRCRPPRLPRPRPRPMTIPRP	-0.128
RRIRCRPPRLPRPRPRPMTTPRP	0.151
RRIRCRPPRLPRPRPRPMVHPRP	-0.452
RRIRCRPPRLPRPRPRPMVKPRP	-0.228
RRIRCRPPRLPRPRPRPMWKPRP	-0.0547
RRIRCRPPRLPRPRPRPMWPPRP	0.481
RRIRCRPPRLPRPRPRPMWWPRP	0.396
RRIRCRPPRLPRPRPRPMYGPRP	-0.675
RRIRCRPPRLPRPRPRPNCIPRP	-0.723
RRIRCRPPRLPRPRPRPNCWPRP	0.078
RRIRCRPPRLPRPRPRPNDDPRP	-0.161
RRIRCRPPRLPRPRPRPNDLPRP	0.0432
RRIRCRPPRLPRPRPRPNGPPRP	-0.00954
RRIRCRPPRLPRPRPRPNHLPRP	-0.437
RRIRCRPPRLPRPRPRPNIDPRP	-0.539
RRIRCRPPRLPRPRPRPNIHPRP	-0.607
RRIRCRPPRLPRPRPRPNLNPRP	-0.575
RRIRCRPPRLPRPRPRPNLPPRP	0.649
RRIRCRPPRLPRPRPRPNLYPRP	-0.347
RRIRCRPPRLPRPRPRPNMPPRP	-0.627
RRIRCRPPRLPRPRPRPNPWPRP	0.017
RRIRCRPPRLPRPRPRPNQKPRP	0.184
